Reference: paper PMC7398163

Biological target: FLAG-YAP tagged with a nuclear exclusion sequence (NES) (human) (UniProt P46937)
Test: co-IP

IQGAP1 (from UniProt Q9JKF1 1-1657) (natural protein)
fold association relative to WT YAP: 2 fold
